Experimental data: paper PMC5749160, “Disruption of an RNA-binding hinge region abolishes LHP1-mediated epigenetic repression”

Molecular target: T1, GST-LHP1 (Arabidopsis thaliana (Col-0 cDNA), UniProt Q946J8 1-445)
T1 sequence: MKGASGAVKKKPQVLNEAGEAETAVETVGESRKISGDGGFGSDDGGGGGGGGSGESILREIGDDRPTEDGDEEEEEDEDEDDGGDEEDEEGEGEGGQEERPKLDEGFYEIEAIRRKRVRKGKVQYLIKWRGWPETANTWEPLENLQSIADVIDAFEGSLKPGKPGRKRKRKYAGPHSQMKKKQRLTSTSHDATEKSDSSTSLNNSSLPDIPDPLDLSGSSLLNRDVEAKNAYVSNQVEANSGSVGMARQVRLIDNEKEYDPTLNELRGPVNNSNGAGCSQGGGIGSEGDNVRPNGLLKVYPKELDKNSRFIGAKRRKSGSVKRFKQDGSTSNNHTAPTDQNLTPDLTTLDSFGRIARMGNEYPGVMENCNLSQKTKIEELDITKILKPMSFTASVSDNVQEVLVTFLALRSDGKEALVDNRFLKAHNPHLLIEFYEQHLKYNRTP
Experiment: EMSA; EMSA: 20 mM HEPES-KOH pH 7.5, 100 mM KCl, 0.05% NP-40, 10 nM Cy5 probe (1 uL of 100 nM + 9 uL protein), 30 min room temperature; 1.6% TBE-agarose gel
Conditions: protein: recombinant; tags: N-terminal GST (pGEX-4T-1); label: 5' Cy5; single-stranded

B1: FLC 40-nt ssRNA (ssRNA)
RNA: CUCCUCCGGCGAUAAGUACGCCUUUUCCUUACCUGGGUUU
  Kd: ~200 nM
